{
  "source": "patent US20170121318",
  "about": "“USE OF SMALL MOLECULE INHIBITORS TO KLF10 FOR MODULATION OF T REGULATORY CELLS AND CANCER IMMUNOTHERAPY” (THE BRIGHAM AND WOMEN'S HOSPITAL, INC., published 2017)",
  "biological_target": "KLF10 (TIEG1) (UniProt Q13118 Q13118:1-480)",
  "sequence (Q13118 whole entry, the tested form may be a part, one chain of several)": "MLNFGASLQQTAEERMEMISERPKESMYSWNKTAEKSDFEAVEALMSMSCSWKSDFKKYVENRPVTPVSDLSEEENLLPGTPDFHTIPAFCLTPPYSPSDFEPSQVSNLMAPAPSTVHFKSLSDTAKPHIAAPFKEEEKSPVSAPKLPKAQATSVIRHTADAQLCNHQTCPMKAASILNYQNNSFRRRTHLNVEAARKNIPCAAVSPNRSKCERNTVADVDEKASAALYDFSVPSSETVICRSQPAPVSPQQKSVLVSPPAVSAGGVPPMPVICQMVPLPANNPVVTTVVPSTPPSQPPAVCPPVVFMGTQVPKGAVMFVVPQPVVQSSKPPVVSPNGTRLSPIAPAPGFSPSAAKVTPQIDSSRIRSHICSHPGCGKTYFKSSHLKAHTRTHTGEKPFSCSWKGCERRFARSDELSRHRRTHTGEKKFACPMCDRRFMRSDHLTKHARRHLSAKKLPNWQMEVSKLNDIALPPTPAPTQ",
  "assay": "EMSA; 100 ng protein, 5 fmol probe, 5 mM MgCl2, poly(dI-dC), 0.05% NP-40, room temperature; binding inhibited by compounds #48, #48-15, #15-09",
  "conditions": "tags: GST fusion (GST-KLF10); Novus Biologicals; label: 3' biotin",
  "experimental": "The identified small molecule compounds were next examined for effects on KLF10 DNA-protein binding.\nKLF10 recombinant protein was obtained from Novus Biologicals. […] End-labeled oligos (1 μmol/L) were annealed in a buffer system with 10 mM Tris, 50 mM NaCl, pH 8.0 by heating at 95° C. for 5 min, then slowly cooled to 65° C. for 30 min incubation, and cooled to room temperature. […] Compounds were incubated with KLF10 in a reaction system for 4 hrs at room temperature, and then Biotin-labeled probes were added for a 1 hr incubation.",
  "data": [
    {"binder": "KLF10 consensus DNA-binding sequence (dsDNA) DNA 1: GCAGTGAAAAGGGGGTGTGTCAGGATGC DNA 2: GCATCCTGACACACCCCCTTTTCACTGC", "values": [
      {"measurement": "binding result", "value": "binds"}
    ]}
  ]
}
